Experimental findings from paper PMC5336186 (Nature cell biology, 2017) are described below.

The target in test [1] is T1, GST-LLGL2, unphosphorylated (No-P) (UniProt Q6P1M3 1-1020).
T1 sequence (looked up): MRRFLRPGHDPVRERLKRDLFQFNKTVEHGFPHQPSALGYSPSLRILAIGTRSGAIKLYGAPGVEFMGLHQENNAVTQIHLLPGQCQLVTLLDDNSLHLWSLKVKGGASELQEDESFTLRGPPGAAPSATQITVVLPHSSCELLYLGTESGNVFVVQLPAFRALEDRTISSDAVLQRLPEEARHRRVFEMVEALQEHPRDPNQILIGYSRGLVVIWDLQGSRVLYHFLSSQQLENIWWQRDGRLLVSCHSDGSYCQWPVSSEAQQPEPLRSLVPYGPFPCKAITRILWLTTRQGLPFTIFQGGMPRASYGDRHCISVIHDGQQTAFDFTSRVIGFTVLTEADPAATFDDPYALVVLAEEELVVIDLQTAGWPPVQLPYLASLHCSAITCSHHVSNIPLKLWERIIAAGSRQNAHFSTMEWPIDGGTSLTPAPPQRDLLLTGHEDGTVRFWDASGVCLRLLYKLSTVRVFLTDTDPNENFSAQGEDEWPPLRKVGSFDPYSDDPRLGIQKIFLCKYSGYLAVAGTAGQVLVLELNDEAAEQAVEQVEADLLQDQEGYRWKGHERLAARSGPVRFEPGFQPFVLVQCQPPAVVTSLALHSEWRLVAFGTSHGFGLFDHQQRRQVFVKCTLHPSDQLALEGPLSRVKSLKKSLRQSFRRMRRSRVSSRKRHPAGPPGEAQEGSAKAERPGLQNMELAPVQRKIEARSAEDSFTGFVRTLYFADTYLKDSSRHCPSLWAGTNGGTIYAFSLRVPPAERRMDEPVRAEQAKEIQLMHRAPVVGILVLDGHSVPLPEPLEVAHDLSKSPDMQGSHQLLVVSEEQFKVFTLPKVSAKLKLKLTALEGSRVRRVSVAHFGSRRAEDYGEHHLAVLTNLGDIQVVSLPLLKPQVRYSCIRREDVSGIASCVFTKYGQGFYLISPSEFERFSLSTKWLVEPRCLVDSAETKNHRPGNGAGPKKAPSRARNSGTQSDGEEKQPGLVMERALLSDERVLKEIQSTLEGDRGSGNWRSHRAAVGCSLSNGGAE
Briefly: pull-down.

Test [2] deals with T2, GST-LLGL2 phosphorylated at Tyr499 (P-LLGL2) (UniProt Q6P1M3 1-1020, phosphotyrosine at Tyr499).
T2 sequence (looked up): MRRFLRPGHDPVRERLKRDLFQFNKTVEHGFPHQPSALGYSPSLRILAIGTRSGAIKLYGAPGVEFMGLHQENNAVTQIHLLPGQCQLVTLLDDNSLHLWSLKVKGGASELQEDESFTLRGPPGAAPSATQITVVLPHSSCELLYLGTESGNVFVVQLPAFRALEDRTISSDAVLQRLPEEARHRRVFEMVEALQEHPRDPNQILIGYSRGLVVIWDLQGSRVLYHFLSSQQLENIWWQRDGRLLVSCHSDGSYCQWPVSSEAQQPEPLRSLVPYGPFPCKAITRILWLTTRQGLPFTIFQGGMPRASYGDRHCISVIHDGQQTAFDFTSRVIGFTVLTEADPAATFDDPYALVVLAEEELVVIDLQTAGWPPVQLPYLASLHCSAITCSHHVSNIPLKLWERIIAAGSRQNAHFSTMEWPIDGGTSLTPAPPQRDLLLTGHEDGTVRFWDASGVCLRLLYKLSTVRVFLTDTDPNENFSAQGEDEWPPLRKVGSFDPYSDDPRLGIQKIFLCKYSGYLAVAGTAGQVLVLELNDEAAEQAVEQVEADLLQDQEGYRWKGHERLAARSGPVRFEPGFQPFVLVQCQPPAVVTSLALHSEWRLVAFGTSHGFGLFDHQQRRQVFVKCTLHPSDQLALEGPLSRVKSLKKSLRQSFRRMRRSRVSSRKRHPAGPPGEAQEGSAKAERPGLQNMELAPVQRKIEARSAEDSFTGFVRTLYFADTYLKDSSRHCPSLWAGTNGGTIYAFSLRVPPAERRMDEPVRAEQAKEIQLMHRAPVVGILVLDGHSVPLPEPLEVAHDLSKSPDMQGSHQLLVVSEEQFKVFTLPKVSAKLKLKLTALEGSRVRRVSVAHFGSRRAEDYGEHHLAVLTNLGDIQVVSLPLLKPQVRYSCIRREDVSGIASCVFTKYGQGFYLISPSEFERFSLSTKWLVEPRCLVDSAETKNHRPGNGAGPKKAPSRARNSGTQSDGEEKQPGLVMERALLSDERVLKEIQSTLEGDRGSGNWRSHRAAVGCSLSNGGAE
Description: pull-down.

B1: recombinant BCAR3 (natural protein, UniProt O75815 1-825, looked up)
chain: MAAGKFASLPRNMPVNHQFPLASSMDLLSSRSPLAEHRPDAYQDVSIHGTLPRKKKGPPPIRSCDDFSHMGTLPHSKSPRQNSPVTQDGIQESPWQDRHGETFTFRDPHLLDPTVEYVKFSKERHIMDRTPEKLKKELEEELLLSSEDLRSHAWYHGRIPRQVSENLVQRDGDFLVRDSLSSPGNFVLTCQWKNLAQHFKINRTVLRLSEAYSRVQYQFEMESFDSIPGLVRCYVGNRRPISQQSGAIIFQPINRTVPLRCLEEHYGTSPGQAREGSLTKGRPDVAKRLSLTMGGVQAREQNLPRGNLLRNKEKSGSQPACLDHMQDRRALSLKAHQSESYLPIGCKLPPQSSGVDTSPCPNSPVFRTGSEPALSPAVVRRVSSDARAGEALRGSDSQLCPKPPPKPCKVPFLKVPSSPSAWLNSEANYCELNPAFATGCGRGAKLPSCAQGSHTELLTAKQNEAPGPRNSGVNYLILDDDDRERPWEPAAAQMEKGQWDKGEFVTPLLETVSSFRPNEFESKFLPPENKPLETAMLKRAKELFTNNDPKVIAQHVLSMDCRVARILGVSEEMRRNMGVSSGLELITLPHGHQLRLDIIERHNTMAIGIAVDILGCTGTLEDRAATLSKIIQVAVELKDSMGDLYSFSALMKALEMPQITRLEKTWTALRHQYTQTAILYEKQLKPFSKLLHEGRESTCVPPNNVSVPLLMPLVTLMERQAVTFEGTDMWEKNDQSCEIMLNHLATARFMAEAADSYRMNAERILAGFQPDEEMNEICKTEFQMRLLWGSKGAQVNQTERYEKFNQILTALSRKLEPPPVKQAEL
Consider B1, for which the binding result in test [1] and in test [2] was “binds” each time.
